This passage reports proximity ligation assay signal, fold increase in MDA ER-G2 over wild-type MDA cells results from patent EP3917571B1.

The experiment addresses ERp57 (PDIA3), human, endogenous in MDA-MB-231 ER-G2 cells (human) (UniProt P30101). Description: proximity ligation assay on live, intact cells (probes ab10286 and ab13506).
Sequence of UniProt P30101 (P30101 25-505): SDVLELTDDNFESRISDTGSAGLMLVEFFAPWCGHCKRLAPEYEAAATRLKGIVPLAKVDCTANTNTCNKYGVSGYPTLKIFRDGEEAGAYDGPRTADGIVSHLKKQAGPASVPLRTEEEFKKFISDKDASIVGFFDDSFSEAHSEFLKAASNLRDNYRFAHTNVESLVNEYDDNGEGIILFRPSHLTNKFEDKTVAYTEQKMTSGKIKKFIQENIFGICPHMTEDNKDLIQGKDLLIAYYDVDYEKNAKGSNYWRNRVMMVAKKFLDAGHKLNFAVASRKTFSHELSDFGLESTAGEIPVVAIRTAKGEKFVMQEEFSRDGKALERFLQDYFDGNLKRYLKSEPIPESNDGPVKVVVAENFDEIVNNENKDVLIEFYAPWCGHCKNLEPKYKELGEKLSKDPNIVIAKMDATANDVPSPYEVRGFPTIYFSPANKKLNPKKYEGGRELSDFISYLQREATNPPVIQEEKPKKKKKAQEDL

B1: Calnexin (Cnx), human, endogenous in MDA-MB-231 ER-G2 and Huh7 cells (protein, UniProt P27824 21-592, looked up)
chain: HDGHDDDVIDIEDDLDDVIEEVEDSKPDTTAPPSSPKVTYKAPVPTGEVYFADSFDRGTLSGWILSKAKKDDTDDEIAKYDGKWEVEEMKESKLPGDKGLVLMSRAKHHAISAKLNKPFLFDTKPLIVQYEVNFQNGIECGGAYVKLLSKTPELNLDQFHDKTPYTIMFGPDKCGEDYKLHFIFRHKNPKTGIYEEKHAKRPDADLKTYFTDKKTHLYTLILNPDNSFEILVDQSVVNSGNLLNDMTPPVNPSREIEDPEDRKPEDWDERPKIPDPEAVKPDDWDEDAPAKIPDEEATKPEGWLDDEPEYVPDPDAEKPEDWDEDMDGEWEAPQIANPRCESAPGCGVWQRPVIDNPNYKGKWKPPMIDNPSYQGIWKPRKIPNPDFFEDLEPFRMTPFSAIGLELWSMTSDIFFDNFIICADRRIVDDWANDGWGLKKAADGAAEPGVVGQMIEAAEERPWLWVVYILTVALPVFLVILFCCSGKKQTSGMEYKKTDAPQPDVKEEEEEKEEEKDKGDEEEEGEEKLEEKQKSDAEEDGGTVSQEEEDRKPKAEEDEILNRSPRNRKPRRE
modifications: O-GalNAc (Tn) glycosylation mapped at T50, T59, T66, T79, S81 and S86 after GALA activation
Take B1: the proximity ligation assay signal, fold increase in MDA ER-G2 over wild-type MDA cells is 10 fold.
